A value given as a limit tells only on which side of the number the result lay.

Test [1] concerns the target IgG affixed to the BLI probe. The test is described as follows: BLI kinetic analysis, 1:1 fit, protein M 15.6-250 nM, IgG on Anti-Mouse IgG Fc Capture biosensor (mouse IgG per paragraph 316), 37 C.
Test [2] has as its target IgG affixed to the BLI probe. In words: BLI kinetic analysis, 1:1 fit, protein M 15.6-250 nM, IgG on Anti-Mouse IgG Fc Capture biosensor (mouse IgG per paragraph 316), 37 C; same row: KD error 0.2 nM, X2 2.5, R2 1.00.
For test [3], the target named is AAV2 capsid (AAV2-Luciferase vector) (adeno-associated virus 2) (UniProt P03135). In words: cell-based or functional assay.
Test [4] has as its target IgG affixed to the BLI probe. The test is described as follows: BLI kinetic analysis, 1:1 fit, protein M 15.6-250 nM, IgG on Anti-Mouse IgG Fc Capture biosensor (mouse IgG per paragraph 316), 37 C; same row: KD error 0.2 nM, X2 1.9, R2 1.00.
Test [5] addresses IgG affixed to the BLI probe. The test is described as follows: BLI at 37° C, IgG Fc capture biosensor (AHC or AMC, not told which), 1:1 fit, max conc. 50 nM, 6 points.
For test [6], the target named is IgG affixed to the BLI probe. The test is described as follows: BLI kinetic analysis, 1:1 fit, protein M 15.6-250 nM, IgG on Anti-Mouse IgG Fc Capture biosensor (mouse IgG per paragraph 316), 37 C; same row: KD error 0.5 nM, X2 2.4, R2 0.99.
The target in test [7] is IgG affixed to the BLI probe. The test is described as follows: BLI at 37° C, IgG Fc capture biosensor (AHC or AMC, not told which), 1:1 fit, max conc. 250 nM, 5 dilutions.
Test [8] has as its target AAV2 capsid (AAV2-Luciferase vector) (adeno-associated virus 2) (UniProt P03135). The test is described as follows: cell-based or functional assay. This is another data set of the same source.
Test [9] has as its target human intravenous immunoglobulin gamma (IVIG), 10% Human IVIG (Gamunex) (human). The test is described as follows: cell-based or functional assay.

UniProt P03135, sequence (P03135 whole entry, the tested form may be a part): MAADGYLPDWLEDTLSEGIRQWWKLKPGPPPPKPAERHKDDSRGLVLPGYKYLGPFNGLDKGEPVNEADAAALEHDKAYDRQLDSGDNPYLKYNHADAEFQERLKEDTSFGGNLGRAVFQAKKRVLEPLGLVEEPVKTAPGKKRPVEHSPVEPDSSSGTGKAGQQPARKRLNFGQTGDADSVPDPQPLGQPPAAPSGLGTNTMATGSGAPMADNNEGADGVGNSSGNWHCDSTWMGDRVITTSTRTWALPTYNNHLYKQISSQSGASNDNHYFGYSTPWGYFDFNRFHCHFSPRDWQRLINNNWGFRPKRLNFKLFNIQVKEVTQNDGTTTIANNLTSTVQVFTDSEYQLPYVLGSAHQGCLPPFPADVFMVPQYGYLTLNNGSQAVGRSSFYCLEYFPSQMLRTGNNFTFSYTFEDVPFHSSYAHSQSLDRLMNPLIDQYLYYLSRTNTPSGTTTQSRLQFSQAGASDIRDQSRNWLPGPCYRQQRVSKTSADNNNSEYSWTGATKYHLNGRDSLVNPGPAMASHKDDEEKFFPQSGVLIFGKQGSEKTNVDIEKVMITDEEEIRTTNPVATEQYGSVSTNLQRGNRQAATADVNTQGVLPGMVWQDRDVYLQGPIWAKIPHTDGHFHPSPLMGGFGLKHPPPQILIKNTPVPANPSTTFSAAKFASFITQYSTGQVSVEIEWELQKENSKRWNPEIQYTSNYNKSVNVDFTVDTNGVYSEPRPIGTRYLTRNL

In [1], MG WT came in with a koff of 0.00033 s⁻¹ and a kon of 28000 M⁻¹ s⁻¹. In addition, in [2], the Kd amounted to 11.9 nM.
“protein M without cleavage of the His tag (from UniProt P47523 37-556)”: in test [3], the molar ratio of protein M to AAV2 particle at which enhancement begins to saturate (protein M molecules per AAV2 particle) stood at 700000 and the molar ratio of protein M to AAV2 particle below which enhancement of the luciferase signal is abolished (protein M molecules per AAV2 particle) was under 40000.

B1: MG 40 (protein, part only)
chain: SLSLNDGSYQSEIDLSGGANFREKFRNFANELSEAITNSPKGLDRPVPKTEISGLIKTGDNFITPSFKAGYYDHVASDGSLLSYYQSTEYFNNRVLMPILQTTNGTLMANNRGYDDVFRQVPSFSGWSNTKATTVSTSNNLTYDKWTYFAAKGSPLYDSYPNHFFEDVKTLAIDAKDISALKTTIDSEKPTYLIIRGLSGNGSQLNELQLPESVKKVSLYGDYTGVNVAKQIFANVVELEFYSTSKANSFGFNPLVLGSKTNVINDLFASKPFTHIDLTQVPLQNSDNSAIDANKLKQAVGDIYNYRRFERQFQGYFAGGYIDKYLVKNVNTNKDSDDDLVYRSLKELNLHLEEAYREGDNTYYRVNENYYPGASIYENERASRDSEFQNEILKRAEQNGVTFDEN
modifications: N-terminal His-tag and thrombin site
As for B1, the Kd in test [4] was determined as 10.1 nM. In test [1], this molecule returned a koff of 0.00031 s⁻¹ and a kon of 31000 M⁻¹ s⁻¹.

B2: MG66* (modified M. genitalium protein M MG66 with Y338) (protein)
chain: SLSLNDGSYQSEIDLSGGANFREKFRNFANELSEAITNSPKGLDRPVPKTEISGLIKTGDNFITPSFKAGYYDHVAEDGSLLSYYQSTEYFNNRVLMPILQTTNGTLMANNRGYDDVFRQVPRFPGWSNTKPTTVSTSNNLTYDKWTYFAAKGSPLYDQYPNHTFEDVKTLAIDAKDISALKTTIDSEKPTYLIIRGLSGDGSQLNELQLPESVKKVSLYGDYTGVNVAKQIFANVVELEFYSTSKANSFGFNPLVLGSKTNVIYDLFVSKPFTHIDLTQVPLQNSDNSAIDANKLKQAVGDIYNYRRFERQFQGYFAGGYIDKYLVKNVNTNKDSDDDLVYRSLKELNLHLEEAYREGDNTYYRVNENYYPGASIYENERASRDSEFQNEILKRAEQNGVTFDEN
As to B2, in test [5], the Kd worked out at 0.69 nM, the koff turned out to be 5.55e-05 s⁻¹ and the kon is 80100 M⁻¹ s⁻¹.

B3: MG WT* (truncated M. genitalium protein M, amino acids 74-479, with Y338) (protein)
chain: SLSLNDGSYQSEIDLSGGANFREKFRNFANELSEAITNSPKGLDRPVPKTEISGLIKTGDNFITPSFKAGYYDHVASDGSLLSYYQSTEYFNNRVLMPILQTTNGTLMANNRGYDDVFRQVPSFSGWSNTKATTVSTSNNLTYDKWTYFAAKGSPLYDSYPNHFFEDVKTLAIDAKDISALKTTIDSEKPTYLIIRGLSGNGSQLNELQLPESVKKVSLYGDYTGVNVAKQIFANVVELEFYSTSKANSFGFNPLVLGSKTNVIYDLFASKPFTHIDLTQVTLQNSDNSAIDANKLKQAVGDIYNYRRFERQFQGYFAGGYIDKYLVKNVNTNKDSDDDLVYRSLKELNLHLEEAYREGDNTYYRVNENYYPGASIYENERASRDSEFQNEILKRAEQNGVTFDEN
In test [5], B3 displayed a Kd of 0.8 nM, a koff of 6.73e-05 s⁻¹ and a kon of 83800 M⁻¹ s⁻¹.

B4: MG 31 (protein, part only)
chain: SLSLNDGSYQSEIDLSGGANFREKFRNFANELSEAITNSPKGLDRPVPKTEISGLIKTGDNFITPSFKAGYYDHVASDGSLLSYYQSTEYFNNRVLMPILQTTNGTLMANNRGYDDVFRQVPSFSGWSNTKATTVSTSNNLTYDKWTYFAAKGSPLYDSYPNHFFEDVKTLAIDAKDISALKTTIDSEKPTYLIIRGLSGNGSQLNELQLPESVKKVSLYGDYTGVNVAKQIFANVVELEFYSTSKANSFGFNPLVLGSKTNVINDLFASKPFTHIDLTQVTLQNSDNSAIDANKLKQAIGDIYNYRRFERQFQGYFAGGYIDKYLIKIVNTNPDVDDDIVYRSLKELNLHLEEAYREGDNIYYRVNENYYPGASIYENERASRDSEFQNEILKRAEQNGVTFDEN
modifications: N-terminal His-tag and thrombin site
For the molecule B4, in test [1], the koff was found to be 0.00047 s⁻¹ and the kon was found to be 30000 M⁻¹ s⁻¹. In test [6], this molecule gave a Kd of 15.5 nM.

B5: MG29 (modified M. genitalium protein M MG29, N338) (protein, not shown: small tags and cut ends)
chain: SLSLNDGSYQSEIDLSGGANFREKFRNFANELSEAITNSPKGLDRPVPKTEISGLIKTGDNFITPSFKAGYYDHVAEDGSLLSYYQSTEYFNNRVLMPILQTTNGTLMANNRGYDDVFRQVPRFPGWSNTKATTVSTSNNLTYDKWTYFAAKGSPLYDQYPNHTFEDVKTLAIDAKDISALKTTIDSEKPTYLIIRGLSGNGSQLNELQLPESVKKVSLYGDYTGVNVAKQIFANVVELEFYSTSKANSFGFNPLVLGSKTNVINDLFVSKPFTHIDLTQVTLQNSDNSAIDANKLKQAVGDIYNYRRFERQFQGYFAGGYIDKYLVKNVNTNKDSDDDLVYRSLKELNLHLEEAYREGDNTYYRVNENYYPGASIYENERASRDSEFQNEILKRAEQNGVTFDEN
In test [7], B5 showed an equilibrium dissociation constant (Kd) of 7.9 nM, a koff of 0.00034 s⁻¹ and a kon of 43000 M⁻¹ s⁻¹.

B6: protein M (SEQ ID NO:2), His-tag removed by thrombin cleavage (protein)
chain: HHHHHHSSGLVPRGSHMTNLVNQSGYALVASGRSGNLGFKLFSTQSPSAEVKLKSLSLNDGSYQSEIDLSGGANFREKFRNFANELSEAITNSPKGLDRPVPKTEISGLIKTGDNFITPSFKAGYYDHVASDGSLLSYYQSTEYFNNRVLMPILQTTNGTLMANNRGYDDVFRQVPSFSGWSNTKATTVSTSNNLTYDKWTYFAAKGSPLYDSYPNHFFEDVKTLAIDAKDISALKTTIDSEKPTYLIIRGLSGNGSQLNELQLPESVKKVSLYGDYTGVNVAKQIFANVVELEFYSTSKANSFGFNPLVLGSKTNVIYDLFASKPFTHIDLTQVTLQNSDNSAIDANKLKQAVGDIYNYRRFERQFQGYFAGGYIDKYLVKNVNTNKDSDDDLVYRSLKELNLHLEEAYREGDNTYYRVNENYYPGASIYENERASRDSEFQNEILKRAEQNGVTFDENIKRITASGKYSVQFQKLENDTDSSLERMTKAVEGLVTVIGEEKFETVDITGVSSDTNEVKSLAKELKTNALGVKLKL
Consider B6, for which, in [8], the AAV2-Luciferase signal, % of PBS control, 33 µg protein M incubated alone with AAV2 (% of PBS control) worked out at 216 and the AAV2-Luciferase signal, % of PBS control, 75 µg protein M incubated alone with AAV2 (% of PBS control) is 208. Moreover, in test [9], the AAV2-Luciferase signal, % of no-IVIG control, at 8:1 molar ratio (33 µg protein M, 12.5 µg IVIG) (% of no-IVIG control) turned out to be 194; the AAV2-Luciferase signal, % of no-IVIG control, at 20:1 molar ratio (75 µg protein M, 12.5 µg IVIG) (% of no-IVIG control) was 256; the AAV2-Luciferase signal, % of no-IVIG control, at protein M:IgG molar ratio 0.5:1 (% of no-IVIG control) was 40; the AAV2-Luciferase signal, % of no-IVIG control, at protein M:IgG molar ratio 1:1 (% of no-IVIG control) came out at 52. In [9], the AAV2-Luciferase signal, % of no-IVIG control, at protein M:IgG molar ratios greater than 2:1 (12.5 µg IVIG) (% of no-IVIG control) is 108 to 193 and the molar ratio of protein M to IgG sufficient to prevent AAV2 neutralization (protein M molecules per IgG molecule) worked out at 2.

The values are drawn from patent US20240309055A1.
